{
  "source": "paper PMC4359974",
  "target": "Sulfolobus solfataricus heat shock 20.1 (Sulfolobus solfataricus P2)",
  "experiment": "SEC",
  "data": [
    {"substance": "Sulfolobus solfataricus heat shock 20.1 (natural protein)", "values": [
      {"measurement": "stoichiometry N", "result": 24, "unit": "subunits"}
    ]}
  ]
}
